No end group written: not given here. TMR = tetramethyl rhodamine dye
T1: Rb^P R741S (human, UniProt P06400 380-788, R741S)
T1 construct: also called variant 70
T1 sequence (looked up): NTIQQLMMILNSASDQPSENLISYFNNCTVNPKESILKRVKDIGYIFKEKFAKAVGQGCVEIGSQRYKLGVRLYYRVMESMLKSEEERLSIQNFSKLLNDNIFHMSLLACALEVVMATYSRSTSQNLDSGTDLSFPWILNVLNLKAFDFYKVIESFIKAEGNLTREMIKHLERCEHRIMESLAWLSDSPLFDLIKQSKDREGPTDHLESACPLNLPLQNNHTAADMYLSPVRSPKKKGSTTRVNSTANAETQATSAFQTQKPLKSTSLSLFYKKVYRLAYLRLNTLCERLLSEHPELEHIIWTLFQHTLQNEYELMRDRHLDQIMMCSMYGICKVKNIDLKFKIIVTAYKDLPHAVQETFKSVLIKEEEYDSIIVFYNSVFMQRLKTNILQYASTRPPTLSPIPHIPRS

T2: Rb^P M761L (human, UniProt P06400 380-788, M761L)
T2 construct: also called variant 74
T2 sequence (looked up): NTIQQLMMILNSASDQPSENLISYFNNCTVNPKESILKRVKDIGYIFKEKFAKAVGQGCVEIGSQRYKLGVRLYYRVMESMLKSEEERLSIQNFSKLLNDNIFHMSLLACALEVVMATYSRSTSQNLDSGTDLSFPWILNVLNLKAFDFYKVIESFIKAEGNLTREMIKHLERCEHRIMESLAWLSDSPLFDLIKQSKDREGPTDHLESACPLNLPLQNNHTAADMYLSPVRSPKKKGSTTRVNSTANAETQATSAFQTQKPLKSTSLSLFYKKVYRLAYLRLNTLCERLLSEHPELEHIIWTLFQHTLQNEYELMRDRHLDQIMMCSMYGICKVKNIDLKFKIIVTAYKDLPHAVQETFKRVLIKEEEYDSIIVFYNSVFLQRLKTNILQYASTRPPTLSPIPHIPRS

T3: Rb^P H585Y (human, UniProt P06400 380-788, H585Y)
T3 construct: also called variant 33
T3 sequence (looked up): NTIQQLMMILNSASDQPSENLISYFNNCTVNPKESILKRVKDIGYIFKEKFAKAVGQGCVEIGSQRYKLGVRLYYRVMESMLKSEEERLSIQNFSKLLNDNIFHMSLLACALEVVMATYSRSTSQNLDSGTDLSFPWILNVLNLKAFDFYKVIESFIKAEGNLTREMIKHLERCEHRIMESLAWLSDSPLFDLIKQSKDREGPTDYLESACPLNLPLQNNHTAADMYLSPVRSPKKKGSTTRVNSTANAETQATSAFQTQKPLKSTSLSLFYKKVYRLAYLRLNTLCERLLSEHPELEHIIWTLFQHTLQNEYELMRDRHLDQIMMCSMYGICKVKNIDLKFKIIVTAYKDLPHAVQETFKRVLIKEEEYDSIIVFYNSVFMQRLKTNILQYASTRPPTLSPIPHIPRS

T4: Rb^P S443L (human, UniProt P06400 380-788, S443L)
T4 construct: also called variant 2
T4 sequence (looked up): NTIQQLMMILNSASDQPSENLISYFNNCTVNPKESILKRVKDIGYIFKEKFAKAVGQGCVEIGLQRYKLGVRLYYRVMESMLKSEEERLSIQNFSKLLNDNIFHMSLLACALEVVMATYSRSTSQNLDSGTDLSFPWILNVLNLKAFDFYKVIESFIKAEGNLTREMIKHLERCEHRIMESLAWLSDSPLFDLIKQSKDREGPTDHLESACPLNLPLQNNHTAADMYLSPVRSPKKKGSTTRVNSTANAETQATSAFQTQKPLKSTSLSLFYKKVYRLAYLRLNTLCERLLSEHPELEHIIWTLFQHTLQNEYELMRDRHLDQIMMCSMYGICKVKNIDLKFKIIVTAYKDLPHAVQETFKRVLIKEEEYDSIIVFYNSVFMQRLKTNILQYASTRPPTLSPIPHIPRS

T5: Rb^P R621C (human, UniProt P06400 380-788, R621C)
T5 construct: also called variant 41
T5 sequence (looked up): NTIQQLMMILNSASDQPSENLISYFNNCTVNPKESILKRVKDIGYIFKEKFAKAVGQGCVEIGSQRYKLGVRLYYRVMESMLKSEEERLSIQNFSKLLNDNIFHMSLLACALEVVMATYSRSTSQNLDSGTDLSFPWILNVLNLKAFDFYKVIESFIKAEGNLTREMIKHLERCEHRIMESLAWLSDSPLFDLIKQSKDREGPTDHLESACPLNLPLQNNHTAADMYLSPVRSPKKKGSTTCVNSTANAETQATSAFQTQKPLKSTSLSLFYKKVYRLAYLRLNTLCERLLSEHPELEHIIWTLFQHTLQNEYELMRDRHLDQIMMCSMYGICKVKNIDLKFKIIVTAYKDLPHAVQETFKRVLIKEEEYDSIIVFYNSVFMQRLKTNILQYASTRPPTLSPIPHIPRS


Experiments:
Assay in all cases: fluorescence polarisation; 37 °C, after the 25 °C reading ramped over 7 min to 37 °C and 2 min incubation; unlabeled Rb^P against 1.5 nM TMR-E2F1^TD or 7.5 nM TMR-E7^LxCxE; 25 mM Tris pH 8.0, 200 mM NaCl, 1 mM DTT, 0.1% Tween-20; apparent Kd
Conditions in all cases: both partners purified
Rb^P R741S = target: T1, Rb^P R741S
Rb^P M761L = target: T2, Rb^P M761L
Rb^P H585Y = target: T3, Rb^P H585Y
Rb^P S443L = target: T4, Rb^P S443L
Rb^P R621C = target: T5, Rb^P R621C

Binder	Kd (Rb^P R741S) [nM]	Kd (Rb^P M761L) [nM]	Kd (Rb^P H585Y) [nM]	Kd (Rb^P S443L) [nM]	Kd (Rb^P R621C) [nM]
{TMR}-GEGIRDLFDCDFGDLTPLD (also called E2F^TD; source: synthetic peptide, bought: GenScript) [TMR-E2F1^TD, peptide of the E2F1 transactivation domain]	84	68	92	55	43
DLYCYEQLN (also: TMR label, position not given here, source: synthetic peptide, bought: GenScript) [TMR-E7^LxCxE, LxCxE peptide of the E7 oncoprotein from HPV]	46	5	18	21	30
